From PMC5417323 (Journal of Molecular Biology, 2017)
Non-standard residues stand in square brackets, D forms with d. Primed or numbered codes have the meaning given here. No end group written: not given here. *: point of attachment. FITC = O=C1OC2(c3ccc(O)cc3Oc3cc(O)ccc32)c2ccc(NC(=S)*)cc21; pY = N[C@@H](Cc1ccc(OP(=O)(O)O)cc1)C(=O)O; FITC′ = not defined here

Assays:
[1] = target: the eight SFK SH2 domains; assay: fluorescence polarisation
Lck SH2 domain = Lck SH2 domain (UniProt P06239 118-231, biotin on the Avi-tag (yeast binding assay, pull-down)); assay: fluorescence polarisation
Sequence of Lck SH2 domain (P06239 118-231): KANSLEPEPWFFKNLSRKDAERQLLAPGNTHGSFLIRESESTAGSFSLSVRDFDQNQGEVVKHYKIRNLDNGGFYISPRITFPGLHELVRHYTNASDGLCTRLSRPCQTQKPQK

Kd [1] [nM]	Kd (Lck SH2 domain) [nM]	Binder
310 to 675		EPQ[pY]EEIPIYLK-{FITC′} [EPQp…-(FITC)]
	2200	{FITC}-TEGQ[pY]QPQPA [(FITC)-TEGQpYQPQPA]
	955	{FITC}-ADND[pY]IIPLPD [(FITC)-ADNDpYIIPLPD]
